According to article PMC8323339 (Immunity, 2021):
Read-outs that look alike come from different tables or passages of the source.

B1: C548 IgG (antibody, V domains shown)
VH: QVQLVQSGAEVKKPGSSVKVSCKASGGTFSSYAISWVRQAPGQGLEWMGGIIPIFGTANYAQKFQGRVTITADESTSTAYMELSSLRSEDTAVYYCARREAYGPRDYYYYYGMDVWGQGTTVTVSS
VL: QSALTQPPSASASLGASVTLTCTLSSGYSNYKVDWYQQRPGKGPRFVMRVGTGGIVGSKGDGIPDRFSVLGSGLNRYLTIKNIQEEDESDYHCGADQGSGSNFVGVFGGGTKLTV
B2: C549 (antibody, V domains shown)
VH: QVQLVQSGAEVKKPGSSVKVSCKASGGTFSTSAISWVRQAPGQGLEWMGGIIPFFGTPNYAQKFQGRVTIIADESTTTAYMELSGLRFEDSAVYYCARREPYGPRDYYYFFGMDVWGPGTTVTVSS
VL: QSALTQPPFASASLGASVTLTCTLSSDYSYYKVDWYQQRPGKGPRFVIRVGPGGIVGSKGDGFPDRFSVLGSGLNRSLTINNIQEEDEGDYHCGADEGSGGTFVGVFGGGTKLTV
B3: C080 IgG (antibody, V domains shown)
VH: EVQLVQSGAEVKKPGESLNISCKASGYSFTIYWIAWVRQLPGKGLEWMGIIYPGDSDTRYSPSFQGQVTISADKSISTAYLQWRSLKASDSAVYYCARGVAVDWYFDLWGRGTLVTVSS
VL: QSVLTQPPSVSGAPGQRVTISCAGSSSNIGAGFDVYWYQQLPGTAPKLLIYGNNNRPSGVPDRFSGSKSGTSASLAITGLQAEDEADYYCQSSGSVLSDLYVFGTGTKVTVL
B4: C099 IgG (antibody, V domains shown)
VH: EVQLVESGGGLIQPGGSLRLSCAASGITVSSNYMSWVRQAPGKGLEWVSVMYAGGSTFYADSVKGRFTISRDDSKNTLFLQMNSLRAEDTAIYYCARDLYSSGGTDIWGQGTMVTVSS
VL: EIVLTQSPGTLSLSPGERATLSCRASQSIGSSYLAWYQQKPGLAPRLLIYGASRRATGIPDKFSGSGSGADFTLTISRLEPEDFAVYYCQQYGSSPGTFGQGTKVEIK
B5: C099 Fab (Fab, V domains shown)
VH: B4 VH
VL: B4 VL

Assays:
[1] = molecular target: T1, SARS-CoV-2 Spike receptor-binding domain (RBD), wild type, as used for BLI (SARS-CoV-2, wild type, UniProt P0DTC2); assay: BLI
[2] = molecular target: T1, SARS-CoV-2 Spike receptor-binding …
[3] = molecular target: SARS-CoV-2 RBD, as used for crystallization (SARS-CoV-2, wild type, UniProt P0DTC2); assay: crystal structure

Binder	binding result [1]	further results
B1	binds	
B2		binding result [2]: binds
B3	binds	
B4	binds	
B5		binding result [3]: binds
